Measured values reported in publication PMC10582461, “Self‐Aggregating Tau Fragments Recapitulate Pathologic Phenotypes and Neurotoxicity of Alzheimer's Disease in Mice” (Advanced Science, 2023).

Biological target: the molecule itself
Test: in vitro self-aggregation, non-reducing SDS-PAGE and immunoblot; tau-AC species alone (40-100 µM) in self-assembly buffer (10 mM HEPES pH 7.4, 100 mM NaCl, 1 mM DTT), 37 °C, shaking 250 rpm, no inducers; non-reducing SDS-PAGE, IB and CBB

B1: tau‐AC‐TQDVSK (tau‐AC with the PHF6 motif substituted with hydrophilic residues) (domain or fragment, human, UniProt P10636-8 306-378, looked up)
chain: TQDVSKPVDLSKVTSKCGSLGNIHHKPGGGQVEVKSEKLDFKDRVQSKIGSLDNITHVPGGGNKKIETHKLTF
notes: human tau residues 306-378 of 2N4R (441 residues) with 306VQIVYK311 changed to TQDVSK; numbers count on: 2N4R tau (441 residues); source: E. coli Rosetta 2 (DE3), pET28a, purified
B1: binds.
